The text below walks through data of PMC6141813, “NagRBt Is a Pleiotropic and Dual Transcriptional Regulator in Bacillus thuringiensis”.

The target of this series is NagRBt (formerly YvoABt) (Bacillus thuringiensis strain Bti75, UniProt A0A1T3UL85 1-243). Kind of series: EMSA; EMSA: 10 mM Tris-HCl pH 8.0, 1 mM MgCl2, 50 mM NaCl, 0.5 mM DTT, 0.5 mM EDTA, 5% glycerol, 30 C, 30 min; 0.2 uM probe; competition with 3.0 uM NagRBt, 400-fold. The settings on record: protein: recombinant; tags: C-terminal His (pET-28a(+)); chain copies: 2; unlabeled (EB stain); blunt.

B1: crr (ptsA) dre probe (H) (dsDNA)
DNA 1: TTTTTTTGCCCAACTTGTCTAGAGGTCTTTACTACATTTT
DNA 2: AAAATGTAGTAAAGACCTCTAGACAAGTTGGGCAAAAAAA
Turning to B1, the binding result is reported as “binds”.

B2: chiA dre probe (D) (dsDNA)
DNA 1: AACCAATCATCTAGACAACTATATAACACGAACGTTTTAC
DNA 2: GTAAAACGTTCGTGTTATATAGTTGTCTAGATGATTGGTT
With B2, the binding result is recorded as “binds”.
